Target: wild type CFTR (cystic fibrosis transmembrane conductance regulator) chloride channel (human, UniProt P13569 1-1480, phosphorylated by PKA in the assay (50 units/ml PKA and 2 mM ATP in the cis solution); sites not listed for the assay)
Assay: cell-based or functional assay

wild type CFTR (cystic fibrosis transmembrane conductance regulator) chloride channel, sequence (P13569 whole entry): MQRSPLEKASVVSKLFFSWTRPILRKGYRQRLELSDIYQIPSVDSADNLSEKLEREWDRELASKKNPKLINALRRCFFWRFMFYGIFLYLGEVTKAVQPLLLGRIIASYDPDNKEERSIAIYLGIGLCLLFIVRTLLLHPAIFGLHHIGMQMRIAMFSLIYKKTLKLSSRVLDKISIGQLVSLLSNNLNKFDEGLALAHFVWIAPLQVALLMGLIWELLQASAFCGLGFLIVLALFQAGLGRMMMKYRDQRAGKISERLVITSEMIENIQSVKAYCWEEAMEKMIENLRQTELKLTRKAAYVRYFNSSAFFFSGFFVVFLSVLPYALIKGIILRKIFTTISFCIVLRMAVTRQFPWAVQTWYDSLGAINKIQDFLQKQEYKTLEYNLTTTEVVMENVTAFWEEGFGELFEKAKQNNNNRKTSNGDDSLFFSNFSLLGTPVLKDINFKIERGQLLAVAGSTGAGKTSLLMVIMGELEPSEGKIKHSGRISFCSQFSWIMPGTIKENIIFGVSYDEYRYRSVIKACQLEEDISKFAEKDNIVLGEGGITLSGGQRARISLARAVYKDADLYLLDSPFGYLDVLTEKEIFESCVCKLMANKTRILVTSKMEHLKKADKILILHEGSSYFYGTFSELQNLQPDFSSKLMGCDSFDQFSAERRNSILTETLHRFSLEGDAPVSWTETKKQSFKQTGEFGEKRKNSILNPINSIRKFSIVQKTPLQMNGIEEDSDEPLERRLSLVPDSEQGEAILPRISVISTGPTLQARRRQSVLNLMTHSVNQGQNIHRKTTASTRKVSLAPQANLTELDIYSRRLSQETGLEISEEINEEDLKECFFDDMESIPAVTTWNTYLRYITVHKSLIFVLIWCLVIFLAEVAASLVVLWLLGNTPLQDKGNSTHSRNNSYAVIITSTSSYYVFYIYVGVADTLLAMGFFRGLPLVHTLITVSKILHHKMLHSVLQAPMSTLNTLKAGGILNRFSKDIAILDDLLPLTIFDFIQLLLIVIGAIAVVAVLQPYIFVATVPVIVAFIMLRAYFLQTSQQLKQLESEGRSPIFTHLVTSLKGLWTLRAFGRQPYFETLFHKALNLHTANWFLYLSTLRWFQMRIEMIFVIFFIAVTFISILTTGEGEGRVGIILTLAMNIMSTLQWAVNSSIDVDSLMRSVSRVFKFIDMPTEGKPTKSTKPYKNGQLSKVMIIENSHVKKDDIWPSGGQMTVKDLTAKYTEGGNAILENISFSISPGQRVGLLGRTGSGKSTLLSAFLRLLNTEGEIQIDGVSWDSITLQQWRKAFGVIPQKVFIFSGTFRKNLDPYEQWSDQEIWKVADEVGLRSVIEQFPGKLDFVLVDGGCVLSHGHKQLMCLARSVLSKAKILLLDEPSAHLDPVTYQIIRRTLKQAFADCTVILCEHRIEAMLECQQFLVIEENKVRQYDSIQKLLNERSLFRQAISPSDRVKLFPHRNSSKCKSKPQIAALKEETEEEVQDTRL

open probability of single wt-CFTR channel in planar lipid bilayer: > 2 fold
B1: synthetic NEG2 peptide (22 amino acid peptide corresponding to CFTR amino acids 817-838) (peptide)
peptide: GLEISEEINEEDLKECFFDDME

Reference: US20040121957A1 (CASE WESTERN RESERVE UNIVERSITY, published 2004)
